Entries after “also recorded” stand apart in the source; their conditions may differ.
Experiments:
[1] = biological target: phytochrome-associated protein phosphatase 5 from Arabidopsis thaliana (AtPAPP5), isoform 2, 1-484, affinity tag removed, labelled with a green maleimide dye (Arabidopsis thaliana) (UniProt Q84XU2); experiment: MST; labelled AtPAPP5 at 50 nM, AtPhyB(1-651) variant titrated (S86D 4 nM to 70 uM, S84D 2 nM to 29 uM); 100 uM arachidonic acid (AA) added, 15 min incubation; 25 °C; premium coated capillaries; 1:1 binding model; apparent KD; phytochrome in photodynamical equilibrium with prevalence of Pfr
[2] = phosphorylation at S86

UniProt Q84XU2, sequence (Q84XU2 other isoform, or with tags, fused parts or gaps): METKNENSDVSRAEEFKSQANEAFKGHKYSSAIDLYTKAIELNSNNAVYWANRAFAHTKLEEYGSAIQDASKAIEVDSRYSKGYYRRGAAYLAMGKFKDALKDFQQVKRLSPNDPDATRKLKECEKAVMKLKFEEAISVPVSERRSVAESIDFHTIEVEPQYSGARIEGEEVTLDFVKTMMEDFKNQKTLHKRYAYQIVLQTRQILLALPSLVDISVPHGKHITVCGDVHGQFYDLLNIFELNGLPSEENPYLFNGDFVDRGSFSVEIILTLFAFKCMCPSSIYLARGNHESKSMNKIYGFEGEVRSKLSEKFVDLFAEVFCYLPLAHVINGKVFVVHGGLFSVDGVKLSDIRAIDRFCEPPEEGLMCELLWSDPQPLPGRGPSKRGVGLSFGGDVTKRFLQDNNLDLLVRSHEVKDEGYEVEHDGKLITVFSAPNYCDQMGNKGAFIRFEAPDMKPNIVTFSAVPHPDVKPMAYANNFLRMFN

Substance	Kd [1]	other [2]
AtPhyB(1-651) S84D, phosphomimetic variant of the photosensory module of Arabidopsis thaliana phytochrome B (domain or fragment)	1.3 µM	
AtPhyB(1-651) S86D, phosphomimetic variant of the photosensory module of Arabidopsis thaliana phytochrome B (domain or fragment)	1.8 µM	
phytochrome B (AtPhyB): S86D phosphomimetic		increases, dark conversion t1/2 40 min vs 270 min for wild type; also recorded: changes, 5 nm bathochromic shift of the Pfr absorption maximum
